This is an account of results in IntAct's records for PubMed 23942232.

B1: TNF receptor-associated factor 6 (Mus musculus), P70196 (parent)
chain: MSLLNCENSCGSSQSSSDCCAAMAASCSAAVKDDSVSGSASTGNLSSSFMEEIQGYDVEFDPPLESKYECPICLMALREAVQTPCGHRFCKACIIKSIRDAGHKCPVDNEILLENQLFPDNFAKREILSLTVKCPNKGCLQKMELRHLEDHQVHCEFALVNCPQCQRPFQKCQVNTHIIEDCPRRQVSCVNCAVSMAYEEKEIHDQSCPLANIICEYCGTILIREQMPNHYDLDCPTAPIPCTFSVFGCHEKMQRNHLARHLQENTQLHMRLLAQAVHNVNLALRPCDAASPSRGCRPEDPNYEETIKQLESRLVRQDHQIRELTAKMETQSMYVGELKRTIRTLEDKVAEMEAQQCNGIYIWKIGNFGMHLKSQEEERPVVIHSPGFYTGRPGYKLCMRLHLQLPTAQRCANYISLFVHTMQGEYDSHLPWPFQGTIRLTILDQSEALIRQNHEEVMDAKPELLAFQRPTIPRNPKGFGYVTFMHLEALRQGTFIKDDTLLVRCEVSTRFDMGGLRKEGFQPRSTDAGV

Variants of B1 are the subject of this test. The following applies: with ern1_mouse Ern1, Q9EQY0.
ern1_mouse Ern1, Q9EQY0, sequence (Q9EQY0 whole entry): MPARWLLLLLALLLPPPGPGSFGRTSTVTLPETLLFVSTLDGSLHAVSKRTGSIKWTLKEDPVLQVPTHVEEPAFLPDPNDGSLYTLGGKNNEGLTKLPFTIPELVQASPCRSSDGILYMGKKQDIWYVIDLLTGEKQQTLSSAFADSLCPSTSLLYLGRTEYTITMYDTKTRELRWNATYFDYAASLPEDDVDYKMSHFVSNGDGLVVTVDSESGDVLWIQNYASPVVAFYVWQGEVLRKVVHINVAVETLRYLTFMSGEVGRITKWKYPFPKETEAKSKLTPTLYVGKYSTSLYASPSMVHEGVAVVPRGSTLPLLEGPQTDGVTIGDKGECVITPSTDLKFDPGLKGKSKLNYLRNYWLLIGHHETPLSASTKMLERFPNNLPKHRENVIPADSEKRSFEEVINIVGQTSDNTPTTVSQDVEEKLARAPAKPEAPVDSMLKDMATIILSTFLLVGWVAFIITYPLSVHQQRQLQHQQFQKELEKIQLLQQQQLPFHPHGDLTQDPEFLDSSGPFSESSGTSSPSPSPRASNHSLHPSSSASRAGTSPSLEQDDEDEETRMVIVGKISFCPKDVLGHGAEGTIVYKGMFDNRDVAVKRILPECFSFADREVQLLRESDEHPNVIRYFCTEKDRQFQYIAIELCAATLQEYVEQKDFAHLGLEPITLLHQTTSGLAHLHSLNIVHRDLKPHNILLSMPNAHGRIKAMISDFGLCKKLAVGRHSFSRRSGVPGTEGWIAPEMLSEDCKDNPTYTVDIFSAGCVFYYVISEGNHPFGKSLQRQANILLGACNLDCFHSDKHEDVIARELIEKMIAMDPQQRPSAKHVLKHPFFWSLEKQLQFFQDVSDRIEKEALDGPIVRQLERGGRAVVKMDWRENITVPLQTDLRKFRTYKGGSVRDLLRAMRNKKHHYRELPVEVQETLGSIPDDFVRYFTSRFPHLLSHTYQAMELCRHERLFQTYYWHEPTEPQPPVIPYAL
For C70A, the “effect of a mutation on the interaction” value is “increasing interaction”.
